Literature values in patent US10610592B2, “Treatment of multiple sclerosis” (priority 2014, dated 2020).

Tests used:
[1] = patients treated with alemtuzumab
[2] = very prolonged elimination

Compound	patients who develop thyroid autoimmune diseases, and hematologic and renal complications [1]	elimination time [2]
Alemtuzumab: monoclonal antibody that binds to proteins (CD-52) on mature lymphocytes	Approximately 40%	
C/C(O)=C(\C#N)C(=O)Nc1ccc(C(F)(F)F)cc1 [Teriflunomide]		up to 2 years
